The target in the assay is PIN1 HL-1, fragment of the PIN1 hydrophilic loop, amino acids 289-451 (Arabidopsis thaliana) (UniProt Q9C6B8). Nature of the assay: AUC; sedimentation velocity, 42,000 rpm, 20 °C, 50 mM NaP pH 7.4, 150 mM NaCl, absorbance at 280 nm, c(s) distribution (SEDFIT); PIN1 HL-1 at 1.26 mg/mL; monomer to dimer.

By stoichiometry N is commonly meant the number of molecules, sites or subunits per partner or assembly. “PIN1 HL-1, fragment of the PIN1 hydrophilic loop, amino acids 289-451 (from UniProt Q9C6B8 289-451) (domain or fragment)”: the stoichiometry N was determined as 2.

For the origin of these results see publication PMC9181416.
